From patent US20060239990A1, “Protein Arginine N-Methyltransferase 2 (PRMT-2)” (priority 2003, published 2006)

Columns and labels:
RB = target: T1, RB (Homo sapiens, UniProt P06400); test: In vitro binding assay with GST-RB; details: S35-labeled in vitro translated protein
T1 construct: coding region of RB cDNA was subcloned into pGEX-6P (Amersham/Pharmacia) for generation of GST-RB; made in house
T1 sequence (P06400 1-928): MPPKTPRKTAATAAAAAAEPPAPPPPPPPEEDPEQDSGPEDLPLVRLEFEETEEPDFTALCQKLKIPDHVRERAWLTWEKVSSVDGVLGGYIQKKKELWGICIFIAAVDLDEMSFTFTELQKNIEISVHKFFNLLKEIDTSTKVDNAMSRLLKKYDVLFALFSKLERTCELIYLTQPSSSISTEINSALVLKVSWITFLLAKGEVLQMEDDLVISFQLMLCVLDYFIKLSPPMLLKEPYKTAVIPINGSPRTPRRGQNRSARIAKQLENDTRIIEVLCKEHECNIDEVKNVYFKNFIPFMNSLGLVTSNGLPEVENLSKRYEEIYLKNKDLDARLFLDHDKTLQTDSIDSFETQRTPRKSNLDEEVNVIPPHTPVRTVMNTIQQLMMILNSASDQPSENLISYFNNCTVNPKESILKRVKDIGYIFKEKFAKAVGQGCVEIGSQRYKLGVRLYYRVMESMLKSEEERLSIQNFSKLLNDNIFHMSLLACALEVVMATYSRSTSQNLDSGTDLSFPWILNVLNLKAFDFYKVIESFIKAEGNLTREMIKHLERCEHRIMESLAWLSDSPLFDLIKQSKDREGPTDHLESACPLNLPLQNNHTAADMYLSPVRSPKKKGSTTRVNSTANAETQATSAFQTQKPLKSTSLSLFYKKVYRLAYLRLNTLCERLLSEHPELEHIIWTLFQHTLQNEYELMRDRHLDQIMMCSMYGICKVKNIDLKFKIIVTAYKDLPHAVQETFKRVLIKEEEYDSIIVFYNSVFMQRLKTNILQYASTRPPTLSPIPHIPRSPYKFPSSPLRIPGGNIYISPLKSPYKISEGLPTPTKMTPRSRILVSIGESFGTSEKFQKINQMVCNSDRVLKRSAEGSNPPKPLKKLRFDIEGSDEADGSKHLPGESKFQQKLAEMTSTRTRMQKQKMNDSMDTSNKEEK
Protocol: The crude cell lysate of the GST-fusion proteins was prepared and purified according to the manufacture's protocol (Amersham/Pharmacia). [^35S]-methionine-labeled protein was produced by in vitro transcription/translation using the TNT T7-coupled reticulocyte lysate system (Promega). [^35S]-methionine-labeled protein and GST-fusion protein bound to glutathione sepharose 4B beads were incubated in 500 μl of HNE buffer (50 mM Hepes, pH 7.8, 150 mM NaCl, 1 mM EDTA, 1 mM DTT, 1% NP40, and 1× protease inhibitor mix (Complete: Roche)) at 4° C. for 1 hour. Beads were washed four times with HNE buffer, and then analyzed on an SDS-PAGE gradient gel (4-15%). For the detection of endogenous PRMT-2 interaction with RB, MEFs were lysed with WCL buffer (50 mM Hepes, pH 7.8, 400 mM NaCl, 2 mM EDTA, 1 mM DTT, 0.2% NP40, 10% Glycerol, 20 mM α-glycerophosphate, 5 mM NaF, 0.1 mM NaVO4, and 1× protease inhibitor mix). Then, 1 mg of whole cell extracts were incubated with HNE buffer without DTT and 3 μg of antibodies as indicated. The immune complexes were isolated using protein G beads, and washed four times with HNE buffer. The precipitated protein was boiled with SDS-loading buffer and resolved on SDS-PAGE. For immunoprecipitation of HA-tagged protein, transfected cells were lysed with RIPA buffer (phosphate buffer saline containing 1% NP40, 0.5% sodium deoxycholate, 0.1% SDS, and 1× Complete), and 100 μg of whole cell lysates were immunoprecipitated with anti-HA antibodies and washed in RIPA buffer. Western blot analysis was performed as described in Tanner et al. (1998). Circ Res, 82, 396-403.
To test whether PRMT family members interact with RB, S^35-labeled in vitro translated PRMT1, PRMT2, PRMT3, and PRMT4 (CARM1) were incubated with GST-RB fusion proteins or control GST, and co-precipitated labeled proteins were resolved by SDS-PAGE. […] An equal amount of GST-RB and GST were loaded in each lane, verified by Coomassie staining (FIG. 8B).

IκB-α = test: Co-immunoprecipitation with endogenous IκB-α in 293 cells; type: binding, human; details: HA-tagged constructs in 293 cells
Chain of IκB-α (P25963 whole entry, the tested form may be a part): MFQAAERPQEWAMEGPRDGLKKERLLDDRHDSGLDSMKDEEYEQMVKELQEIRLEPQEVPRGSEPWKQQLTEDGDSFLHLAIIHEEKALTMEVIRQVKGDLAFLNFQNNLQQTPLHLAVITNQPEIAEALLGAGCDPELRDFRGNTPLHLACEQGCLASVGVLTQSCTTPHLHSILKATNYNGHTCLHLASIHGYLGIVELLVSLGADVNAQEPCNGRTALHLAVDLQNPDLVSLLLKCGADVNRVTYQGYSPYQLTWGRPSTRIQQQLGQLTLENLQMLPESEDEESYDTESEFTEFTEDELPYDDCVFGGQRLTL
Excerpt: A polyclonal antibody to recombinant PRMT2 was used to examine the association between endogenous PRMT2 and IκB-α in vivo. […] The domain of IκB-α required for association with PRMT2 was mapped using in vivo immunoprecipitation assays where HA-tagged PRMT2 was coexpressed with truncation mutants of His-tagged IκB-α (FIG. 5B) in 293 cells. The ankyrin domain was both necessary and sufficient for this association (FIG. 5D, lanes 1 and 2). The domain of PRMT2 that interacted with endogenous IκB-α was mapped by immunoprecipitation following expression HA-tagged PRMT2 truncation mutants (FIG. 5C). […] When the ratios of PRMT2 or PRMT2-A binding to IκB-α were compared, both interacted with IκB-α with similar affinity.

NF-κB = test: κB luciferase reporter in MEFs; type: cell-based, mouse; details: PRMT2−/− MEFs complemented by transfection
Protocol: Cell culture, transfection, and reporter gene assays. The E1A-transformed, human kidney cell line, 293, and NIH-3T3 cells were maintained in Dulbecco's Modified Eagle Medium (DMEM) supplemented with 10% fetal calf serum and penicillin-streptomycin at 37° C. in 5% carbon dioxide in tissue culture grade Petri dishes. PRMT-2−/− mouse embryo fibroblasts (MEFs) and wild type MEFs were prepared from day 13.5 embryos and maintained in DMEM supplemented with 10% fetal calf serum. MEFs at passage 4 were used in this experiment. Lipofectamine Plus™ reagent (Boehringer Mannheim) was used to transfect both 293 and NIH-3T3 cells according to directions from the manufacturer. […] TNF-α stimulation of cells was done using recombinant TNF-α (200 U/ml) for 12 hours. Transfected cells were harvested at 36 hours, and CAT activity was assayed on 10 to 100 μg of protein from whole cell extracts. CAT assays were performed essentially as described in Leung, K. & Nabel, G. J. Nature 333, 776-778 (1988). […] Luciferase activity was analyzed by Dual-Luciferase Reporter Assay System (Promega).
To determine whether similar effects would be observed in non-transformed cell lines with physiological levels of protein, NF-κB inducibility was analyzed in mouse embryonic fibroblasts (MEFs) derived from PRMT2 null mice (T. Y. et al., manuscript in preparation). […]

B1: PRMT2: human PRMT-2 polypeptide, SEQ ID NO:2, expressed from pVR1012 vector with HA-tag (protein, listed as Homo sapiens)
chain: MATSGDCPRSESQGEEPAECSEAGLLQEGVQPEEFVAIADYAATDETQLSFLRGEKILILRQTTADWWWGERAGCCGYIPANHVGKHVDEYDPEDTWQDEEYFGSYGTLKLHLEMLADQPRTTKYHSVILQNKESLTDKVILDVGCGTGIISLFCAHYARPRAVYAVEASEMAQHTGQLVLQNGFADIITVYQQKVEDVVLPEKVDVLVSEWMGTCLLFEFMIESILYARDAWLKEDGVIWPTMAALHLVPCSADKDYRSKVLFWDNAYEFNLSALKSLAVKEFFSKPKYNHILKPEDCLSEPCTILQLDMRTVQISDLETLRGELRFDIRKAGTLHGFTAWFSVHFQSLQEGQPPQVLSTGPFHPTTHWKQTLFMMDDPVPVHTGDVVTGSVVLQRNPVWRRHMSVALSWAVTSRQDPTSQKVGEKVFPIWR
modifications: HA tag
binding to RB (RB): directly interacts with RB
association with endogenous IκB-α (IκB-α): interacted
NF-κB induction by TNF-α (NF-κB): completely abolished NF-κB induction by TNF-α
